From patent publication US20070031855A1 (UNIVERSITY OF WYOMING, published 2007)

Molecular target: CryIAb toxin of Bacillus thuringiensis (Bacillus thuringiensis, UniProt P0A370 29-607, 125I-labeled (probe in blots and in the cell binding assay; the unlabeled toxin was the competitor))

B1: Recombinant BT-R1 protein expressed from the BT-R1 cDNA in pcDNA3 in mammalian cells (receptor)
chain: QERCGYMTAIPRLPRPDNLPVLNFEGQTWSQRPLLPAPERDDLCMDAYHVITANLGTQVIYMDEEIEDEITIAILNYNGPSTPFIELPFLSGSYNLLMPVIRRVDNGEWHLIITQRQHYELPGMQQYMFNVRVDGQSLVAGVSLAIVNIDDNAPIIQNFEPCRVPELGEPGLTECTYQVSDADGRISTEFMTFRIDSVRGDEETFYIERTNIPNQWMWLNMTIGVNTSLNFVTSPLHIFSVTALDSLPNTHTVTMMVQVANVNSRPPRWLEIFAVQQFEEKSYQNFTVRAIDGDTEINMPINYRLITNEEDTFFSIEALPGGKSGAVFLVSPIDRDTLQREVFPLTIVAYKYDEEAFSTSTNVVIIVTDINDQRPEPIHKEYRLAIMEETPLTLNFDKEFGFHDKDLGQNAQYTVRLESVDPPGAAEAFYIAPEVGYQRQTFIMGTLNHSMLDYEVPEFQSITIRVVATDNNDTRHVGVALVHIDLINWNDEQPIFEHAVQTVTFDETEGEGFFVAKAVAHDRDIGDVVEHTLLGNAVNFLTIDKLTGDIRVSANDSFNYHRESELFVQVRATDTLGEPFHTATSQLVIRLNDINNTPPTLRLPRGSPQVEENVPDGHVITQELRATDPDTTADLRFEINWDTSFATKQGRQANPDEFRNCVEIETIFPEINNRGLAIGRVVAREIRHNVTIDYEEFEVLSLTVRVRDLNTVYGDDYDESMLTITIIDMNDNAPVWVEGTLEQNFRVREMSAGGLVVGSVRADDIDGPLYNQVRYTIFPREDTDKDLIMIDFLTGQISVNTSGAIDADTPPRFHLYYTVVASDRCSTEDPADCPPDPTYWETEGNITIHITDTNNKVPQAETTKFDTVVYIYENATHLDEVVTLIASDLDRDEIYHTVSYVINYAVNPRLMNFFSVNRETGLVYVDYETQGSGEVLDRDGDEPTHRIFFNLIDNFMGEGEGNRNQNDTEVLVILLDVNDNAPELPPPSELSWTISENLKQGVRLEPHIFAPDRDEPDTDNSRVGYEILNLSTERDIEVPELFVMIQIANVTGELETAMDLKGYWGTYAIHIRAFDHGIPQMSMNETYELIIHPFNYYAPEFVFPTNDAVIRLARERAVINGVLATVNGEFLERISATDPDGLHAGVVTFQVVGDEESQRYFQVVNDGENLGSLRLLQAVPEEIREFRITIRATDQGTDPGPLSTDMTFRVVFVPTQGEPRFASSEHAVAFIEKSAGMEESHQLPLAQDIKNHLCEDDCHSIYYRIIDGNSEGHFGLDPVRNRLFLKKELIREQSASHTLQVAASNSPDGGIPLPASILTVTVTVREADPRPVFVRELYTAGISTADSIGRELLRLHATQSEGSAITYAIDYDTMVVDPSLEAVRQSAFVLNAQTGVLTLNIQPTATMHGLFKFEVTATDTAGAQDRTDVTVYVVSSQNRVYFVFVNTLQQVEDNRDFIADTFSAGFNMTCNIDQVVPANDPVTGVALEHSTQMRGHFIRDNVPVLADEIEQIRSDLVLLSSIQTTLAARSLVLQDLLTNSSPDSAPDSSLTVYVLASLSAVLGFMCLVLLLTFIIRTRALNRRLEALSMTKYGSLDSGLNRAGIAAPGTNKHTVEGSNPIFNEAIKTPDLDAISEGSNDSDLIGIEDLPHFGNVFMDPEVNEKANGYPEVANHNNNFAFNPTPFSPEFVNGQFRKI
modifications: N-glycosylated (210 kD)
Kd: 1.01 nM
